Data reported in patent US20110183329A1, “PROTEIN PHOSPHATASE-1 INHIBITOR-1 POLYMORPHISM AND METHODS OF USE” (priority 2008, published 2011).

Key:
adult rat cardiomyocytes = assay: Contractile parameter measurements in adenovirus-infected myocytes; type: cell-based; details: for contractility response to isoproterenol (fractional shortening, contraction, relaxation): adenovirus-infected cardiomyocytes; for cellular contractility (fractional shortening, contracting velocity, relaxing velocity): basal conditions, overexpression by adenovirus, 24 h
Description: Adult rat ventricular myocytes were isolated and cultured. Hearts from adult male Sprague-Dawley rats (8 wk old) were perfused with modified Krebs-Henseleit buffer (KHB) (118 mM NaCl, 4.8 mM KCl, 25 mM HEPES, 1.25 mM K2HPO4, 1.25 mM MgSO4, 11 mM glucose, 5 mM taurine, and 10 mM butanedione monoxime; pH 7.4) for 5 min. Subsequently, hearts were perfused with an enzyme solution [KHB containing 0.7 mg/ml collagenase type II (263 U/mg), 0.2 mg/ml hyaluronidase, 0.1% BSA, and 25 μM Ca]. Ten and 15 min later, 25 and 50 μM Ca, respectively, were added to the perfusion buffer, so that the Ca concentration was raised to 100 μM, and perfusion was continued for another 5 min. Finally, left ventricular tissue was excised, minced, pipette dissociated, and filtered through a […] screen. Cells were harvested and resuspended in KM including 1 mM Ca and 1% BSA. After a brief centrifugation, the cells were resuspended in KHB including 1.8 mM Ca and 1% BSA, centrifuged briefly again, and resuspended in Dulbecco's modified Eagle's medium containing 2 mg/ml BSA, 2 mM L-camitine, 5 mM creatine, 5 mM taurine, 1.8 mM Ca, 100 IU/ml penicillin, and 100 μg/ml streptomycin. Cells were then counted and plated on laminin-coated glass coverslips or dishes.
(§1) Recombinant adenovirus carrying empty vector, wild-type (WT) G147 inhibitor-1, or D147 inhibitor-1 was generated by using the Adeno-X expression system kit (Clontech, Mountain View, Calif.). All of the adenoviruses also expressed GFP as an indicator of transfection efficiency. Two hours after isolation and culture, myocytes seeded on coverslips or dishes were infected with adenovirus in diluted media, at a multiplicity of infection of 500, for 2 h before the addition of a suitable volume of culture media. Twenty-four hours later, the myocytes were washed in KHB including 1 mM Ca and harvested for quantitative immunoblotting or use in the experiments outlined below.
Myocytes that adhered to the coverslips were bathed in temperature (37° C.)—equilibrated KHB containing 1 mM Ca for 20 min. The myocyte suspension was then placed in a Plexiglas chamber, which was positioned on the stage of an inverted epifluorescence microscope (Diaphot 200; Nikon, Tokyo, Japan). Myocyte contraction was field-stimulated by a Grass S5 stimulator (0.5 Hz, square. waves; Grass Technologies, An Astro-Med, Inc., West Warwick, R.I., USA), and contractions were videotaped and digitized on a computer. A video edge motion detector (Crescent Electronics, Windsor, ON, Canada) was used to measure myocyte length and cell shortening, from which the percent fractional shortening (% FS) and maximal rates of contraction and relaxation (±dL/dt) were calculated. To investigate the response of adult rat cardiomyocytes to isoproterenol, a maximal concentration of isoproterenol (100 nM) was added to the KHB (including 1 mM Ca) in the Plexiglas chamber, and the above-mentioned measurements were repeated. All data were analyzed using software from Felix 1.1 software (Photon Technology International, Birmingham, N.J., USA) and IonWizard (IonOptix Corp., Milton, Mass., USA).

troponin I = assay: Western blotting of troponin I phosphorylation in infected cardiomyocytes; type: cell-based; details: adult rat cardiomyocytes
Description: as §1
(§2) Alterations in the phosphorylation and/or total level of proteins were analyzed from whole heart homogenates, with the exception of MyBP-C, which was analyzed from a myofibril protein preparation, using Western blotting. 2-70 μg of protein were separated on polyacrylamide gels (6-15%) and transferred to nitrocellulose membranes. The membranes were incubated with primary antibodies, which were visualized by peroxidase-conjugated secondary antibodies (Amersham Biosciences) and enhanced chemiluminescence (Supersignal West Pico Chemiluminescent, Pierce). The bands were then quantified with densitometry, using ImageQuant 5.2 (GE Healthcare, Little Chalfont, UK). […]

PLN = assay: Western blotting of PLN phosphorylation in infected cardiomyocytes; type: cell-based, rat
RyR = assay: Western blotting of RyR phosphorylation in infected cardiomyocytes; type: cell-based; details: adult rat cardiomyocytes
Description: as §1, §2

[1] = system: major regulatory proteins related to cardiac calcium homeostasis; assay: Quantitative immunoblotting of calcium homeostasis regulatory proteins after adenoviral gene transfer; type: cell-based, rat; details: 24 h post-transfection
From the text: FIG. 2. Isolated adult rat cardiomyocytes were infected with adenoviruses expressing GFP as control (empty), G147 inhibitor-1 or D147 inhibitor-1. (A) Images of infected cardiomyocytes and GFP expression. (B) Representative western blots display expression levels of inhibitor-1, SERCA 2a, PLN, CSQ, and L-type Ca-channel (LTCC).
as §1

Molecule	effect of isoproterenol on contractility of control-virus cardiomyocytes (adult rat cardiomyocytes; 100 nM isoproterenol, control virus)	effect of isoproterenol treatment on troponin I phosphorylation (troponin I)	effect of isoproterenol on phosphorylation of PLN in control cells (PLN; control cells)	effect of isoproterenol treatment on RyR phosphorylation (RyR)	contractility response to isoproterenol (fractional shortening, contraction, relaxation) (adult rat cardiomyocytes; 100 nM isoproterenol)	cellular contractility (fractional shortening, contracting velocity, relaxing velocity) (adult rat cardiomyocytes)	levels of the major regulatory proteins related to cardiac calcium homeostasis [1]	level of phosphorylated PLN on serine 16 depressed (PLN; in the presence of isoproterenol) [%]	phosphorylation of PLN (PLN; in the presence of isoproterenol, versus control cells)	contractility response at lower isoproterenol dose (adult rat cardiomyocytes; 10 nM isoproterenol)	contractile parameters depressed compared with WT inhibitor-1-stimulated cells (adult rat cardiomyocytes; 100 nM isoproterenol)
CC(C)NCC(O)c1ccc(O)c(O)c1 (centres unmarked) [isoproterenol, reference compound]	enhanced contractility	increased	increased	increased	–	–	–	–	–	–	–
WT inhibitor-1: wild-type human protein phosphatase-1 inhibitor-1 (SEQ ID NO:13) overexpressed by recombinant adenovirus (protein, listed as Homo sapiens) MEQDNSPRKIQFTVPLLEPHLDPEAAEQIRRRRPTPATLVLTSDQSSPEIDEDRIPNPHLKSTLAMSPRQRKKMTRITPTMKELQMMVEHHLGQQQQGEEPEGAAESTGTQESRPPGIPDTEVESRLGTSGTAKKTAECIPKTHERGSKEPSTKEPSTHIPPLDSKGANSV	–	–	–	–	enhanced contractility	did not alter	did not alter	~50	similarly increased	–	–
D147 inhibitor-1: human inhibitor-1 with aspartic acid for glycine at position 147 (SEQ ID NO:14), overexpressed by recombinant adenovirus (protein, listed as Homo sapiens) MEQDNSPRKIQFTVPLLEPHLDPEAAEQIRRRRPTPATLVLTSDQSSPEIDEDRIPNPHLKSTLAMSPRQRKKMTRITPTMKELQMMVEHHLGQQQQGEEPEGAAESTGTQESRPPGIPDTEVESRLGTSGTAKKTAECIPKTHERDSKEPSTKEPSTHIPPLDSKGANSV	–	–	–	–	significantly blunted	did not alter	did not alter	–	–	differences similar to those observed in 100 nM	24-28%
